Measured values taken from patent US20040152630A1.

Target: different isoforms of the 14-3-3
Assay: not stated (R18 isolated by phage display; Wang et al. 1999 cited)

Kd: 80 nM
B1: R18 polypeptide (14-3-3 amphipathic groove binding antagonist) (peptide)
peptide: PHCVPRDLSWLDLEANMCLP
